Measured values from US20230250154A1 (CYTONICS, published 2023).

Tests used:
Assay in all cases: cell-based or functional assay
[1] = target: T1, ADAMTS4 (human, UniProt O75173 213-685, limits assumed)
T1 sequence (looked up): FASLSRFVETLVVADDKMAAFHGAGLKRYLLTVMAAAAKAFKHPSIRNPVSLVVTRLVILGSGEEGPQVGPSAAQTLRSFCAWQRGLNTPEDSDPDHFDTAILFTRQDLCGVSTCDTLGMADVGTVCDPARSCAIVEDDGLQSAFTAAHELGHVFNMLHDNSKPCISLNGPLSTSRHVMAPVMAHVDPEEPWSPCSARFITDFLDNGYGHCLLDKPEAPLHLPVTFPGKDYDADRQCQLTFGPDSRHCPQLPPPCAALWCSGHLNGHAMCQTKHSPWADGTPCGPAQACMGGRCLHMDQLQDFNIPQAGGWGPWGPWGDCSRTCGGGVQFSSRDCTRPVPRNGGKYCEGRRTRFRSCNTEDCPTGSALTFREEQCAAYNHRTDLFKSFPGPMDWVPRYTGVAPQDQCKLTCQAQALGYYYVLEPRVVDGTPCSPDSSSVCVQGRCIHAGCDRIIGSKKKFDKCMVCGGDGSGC

[2] = target: T2, ADAMTS5 (human, UniProt Q9UNA0 262-622, limits assumed)
T2 sequence (looked up): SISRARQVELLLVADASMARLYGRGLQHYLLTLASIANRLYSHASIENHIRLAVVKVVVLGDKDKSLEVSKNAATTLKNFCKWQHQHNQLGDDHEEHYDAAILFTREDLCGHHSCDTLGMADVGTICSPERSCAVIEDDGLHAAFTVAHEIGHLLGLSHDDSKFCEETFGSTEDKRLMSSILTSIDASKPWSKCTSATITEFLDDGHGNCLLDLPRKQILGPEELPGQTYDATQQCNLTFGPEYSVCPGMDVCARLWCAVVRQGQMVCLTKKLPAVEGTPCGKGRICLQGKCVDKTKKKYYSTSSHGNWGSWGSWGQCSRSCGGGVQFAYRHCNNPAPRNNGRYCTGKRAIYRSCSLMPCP

[3] = target: T3, MMP1 (human, UniProt P03956 100-469, limits assumed)
T3 sequence (looked up): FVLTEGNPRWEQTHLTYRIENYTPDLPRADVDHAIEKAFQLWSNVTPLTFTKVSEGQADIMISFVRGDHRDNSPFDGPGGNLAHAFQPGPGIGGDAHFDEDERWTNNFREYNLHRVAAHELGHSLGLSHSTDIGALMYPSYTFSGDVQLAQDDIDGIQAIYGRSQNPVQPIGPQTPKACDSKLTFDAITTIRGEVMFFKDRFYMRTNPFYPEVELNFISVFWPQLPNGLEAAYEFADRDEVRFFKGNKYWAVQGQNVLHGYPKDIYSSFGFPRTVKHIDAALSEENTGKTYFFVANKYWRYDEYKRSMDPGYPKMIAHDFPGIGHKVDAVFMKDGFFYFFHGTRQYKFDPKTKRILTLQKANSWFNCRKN

[4] = target: MMP8 (human, UniProt P22894 101-467, limits assumed)
[5] = target: MMP13 (human, UniProt P45452 104-471, limits assumed)
[6] = target: T4, MMP2 (human, UniProt P08253 110-660, limits assumed)
T4 sequence (looked up): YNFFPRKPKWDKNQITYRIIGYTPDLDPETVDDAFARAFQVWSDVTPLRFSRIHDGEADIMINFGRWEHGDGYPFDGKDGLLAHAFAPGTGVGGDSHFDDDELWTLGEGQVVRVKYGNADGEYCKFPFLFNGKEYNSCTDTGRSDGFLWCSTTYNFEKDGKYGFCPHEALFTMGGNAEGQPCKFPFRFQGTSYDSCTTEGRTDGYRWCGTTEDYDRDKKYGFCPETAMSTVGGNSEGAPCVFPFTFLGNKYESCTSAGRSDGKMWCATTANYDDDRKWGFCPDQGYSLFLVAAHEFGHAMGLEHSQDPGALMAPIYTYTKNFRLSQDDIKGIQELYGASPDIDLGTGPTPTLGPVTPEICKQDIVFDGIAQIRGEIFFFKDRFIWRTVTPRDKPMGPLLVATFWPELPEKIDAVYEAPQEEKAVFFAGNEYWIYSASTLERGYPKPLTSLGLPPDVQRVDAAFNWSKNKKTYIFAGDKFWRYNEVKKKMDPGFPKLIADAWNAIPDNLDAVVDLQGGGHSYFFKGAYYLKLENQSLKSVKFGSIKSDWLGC

[7] = target: MMP9 (human, UniProt P14780 107-707, limits assumed)
[8] = target: MMP3 (human, UniProt P08254 100-477, limits assumed)
[9] = target: Elastase
[10] = target: T5, Cathepsin G (UniProt P08311 21-244)
T5 sequence (looked up): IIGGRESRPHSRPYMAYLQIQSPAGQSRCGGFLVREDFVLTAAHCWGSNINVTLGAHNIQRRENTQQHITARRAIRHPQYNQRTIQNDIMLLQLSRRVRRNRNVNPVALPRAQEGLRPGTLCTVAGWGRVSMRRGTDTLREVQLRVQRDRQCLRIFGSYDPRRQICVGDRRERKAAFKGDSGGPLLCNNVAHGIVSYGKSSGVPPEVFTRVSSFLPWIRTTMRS

[11] = target: T6, MMP7 (UniProt P09237 95-267, limits assumed)
T6 sequence (looked up): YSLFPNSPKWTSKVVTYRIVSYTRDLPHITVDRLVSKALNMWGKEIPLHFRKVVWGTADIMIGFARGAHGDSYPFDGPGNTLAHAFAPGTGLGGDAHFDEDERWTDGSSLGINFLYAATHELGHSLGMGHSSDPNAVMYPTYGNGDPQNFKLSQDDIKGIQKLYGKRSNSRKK

MMP3, sequence (P08254 100-477 limits assumed): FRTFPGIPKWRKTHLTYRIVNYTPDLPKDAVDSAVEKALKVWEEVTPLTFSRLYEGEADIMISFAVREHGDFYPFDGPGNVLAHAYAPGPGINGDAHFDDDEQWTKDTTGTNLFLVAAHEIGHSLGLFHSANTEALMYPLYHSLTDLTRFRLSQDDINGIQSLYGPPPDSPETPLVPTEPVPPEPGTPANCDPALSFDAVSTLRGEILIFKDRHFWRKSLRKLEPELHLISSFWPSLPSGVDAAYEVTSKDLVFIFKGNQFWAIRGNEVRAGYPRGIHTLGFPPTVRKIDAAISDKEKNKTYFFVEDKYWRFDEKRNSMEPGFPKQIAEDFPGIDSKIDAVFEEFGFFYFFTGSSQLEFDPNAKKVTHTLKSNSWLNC
MMP8, sequence (P22894 101-467 limits assumed): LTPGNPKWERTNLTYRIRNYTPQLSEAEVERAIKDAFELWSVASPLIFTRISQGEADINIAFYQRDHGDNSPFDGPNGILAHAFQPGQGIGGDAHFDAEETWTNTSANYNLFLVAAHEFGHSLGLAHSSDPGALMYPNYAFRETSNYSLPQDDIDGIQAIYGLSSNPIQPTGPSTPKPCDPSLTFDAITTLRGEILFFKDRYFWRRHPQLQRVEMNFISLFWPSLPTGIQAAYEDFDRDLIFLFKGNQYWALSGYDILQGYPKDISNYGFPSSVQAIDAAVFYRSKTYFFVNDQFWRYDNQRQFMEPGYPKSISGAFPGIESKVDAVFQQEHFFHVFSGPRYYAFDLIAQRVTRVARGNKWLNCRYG
MMP9, sequence (P14780 107-707 limits assumed): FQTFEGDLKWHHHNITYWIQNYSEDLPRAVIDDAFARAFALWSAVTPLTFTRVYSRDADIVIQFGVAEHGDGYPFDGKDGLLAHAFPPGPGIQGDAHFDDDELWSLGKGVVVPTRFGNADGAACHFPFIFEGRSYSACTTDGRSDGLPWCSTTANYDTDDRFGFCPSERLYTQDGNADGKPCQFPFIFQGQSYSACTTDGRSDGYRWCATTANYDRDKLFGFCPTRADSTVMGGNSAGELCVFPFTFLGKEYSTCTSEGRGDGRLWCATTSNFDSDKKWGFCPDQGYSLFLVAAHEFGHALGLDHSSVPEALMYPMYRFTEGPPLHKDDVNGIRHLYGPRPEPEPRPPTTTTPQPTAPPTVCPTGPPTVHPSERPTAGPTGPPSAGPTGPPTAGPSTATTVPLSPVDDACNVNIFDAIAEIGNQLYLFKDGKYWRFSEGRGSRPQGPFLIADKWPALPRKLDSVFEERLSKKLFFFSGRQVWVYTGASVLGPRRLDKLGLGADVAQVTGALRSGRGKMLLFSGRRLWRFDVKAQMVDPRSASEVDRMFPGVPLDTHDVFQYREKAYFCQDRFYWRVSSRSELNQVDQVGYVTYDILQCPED

Protease Inhibition (% of WT) [1]	Protease Inhibition (% of WT) [2]	Protease Inhibition (% of WT) [3]	Protease Inhibition (% of WT) [4]	Protease Inhibition (% of WT) [5]	Protease Inhibition (% of WT) [6]	Protease Inhibition (% of WT) [7]	Protease Inhibition (% of WT) [8]	Protease Inhibition (% of WT) [9]	Protease Inhibition (% of WT) [10]	Protease Inhibition (% of WT) [11]	Binder
68 % of WT	217 % of WT	84 % of WT	39 % of WT	46 % of WT	66 % of WT	45 % of WT	26 % of WT	59 % of WT	58 % of WT	94 % of WT	Variant A2M, bait region SEQ ID NO 21 (other) SVSGKPQYMVLVPSLLHTETTEKGCVLLSYLNETVTVSASLESVRGNRSLFTDLEAENDVLHCVAFAVPKSSSNEEVMFLTVQVKGPTQEFKKRTTVMVKNEDSLVFVQTDKSIYKPGQTVKFRVVSMDENFHPLNELIPLVYIQDPKGNRIAQWQSFQLEGGLKQFSFPLSSEPFQGSYKVVVQKKSGGRTEHPFTVEEFVLPKFEVQVTVPKIITILEEEMNVSVCGLYTYGKPVPGHVTVSICRKYSDASDCHGEDSQAFCEKFSGQLNSHGCFYQQVKTKVFQLKRKEYEMKLHTEAQIQEEGTVVELTGRQSSEITRTITKLSFVKVDSHFRQGIPFFGQVRLVDGKGVPIPNKVIFIRGNEANYYSNATTDEHGLVQFSINTTNVMGTSLTVRVNYKDRSPCYGYQWVSEEHEEAHHTAYLVFSPSKSFVHLEPMSHELPCGHTQTVQAHYILNGGTLLGLKKLSFYYLIMAKGGIVRTGTHGLLVKQEDMKGHFSISIPVKSDIAPVARLLIYAVLPTGDVIGDSAKYDVENCLANKVDLSFSPSQSLPASHAHLRVTAAPQSVCALRAVDQSVLLMKPDAELSASSVYNLLPEKDLTGFPGPLNDQDDEDCINRHNVYINGITYTPVSSTNEKDMYSFLEDMGLKAFTNSKIRKPKMCPQLEHGPTEGEARGSPRYLTAIPENFYGVSEDLVVQISELEGRGSPHTKLRKYFPETWIWDLVVVNSAGVAEVGVTVPDTITEWKAGAFCLSEDAGLGISSTASLRAFQPFFVELTMPYSVIRGEAFTLKATVLNYLPKCIRVSVQLEASPAFLAVPVEKEQAPHCICANGRQTVSWAVTPKSLGNVNFTVSAEALESQELCGTEVPSVPEHGRKDTVIKPLLVEPEGLEKETTFNSLLCPSGGEVSEELSLKLPPNVVEESARASVSVLGDILGSAMQNTQNLLQMPYGCGEQNMVLFAPNIYVLDYLNETQQLTPEIKSKAIGYLNTGYQRQLNYKHYDGSYSTFGERYGRNQGNTWLTAFVLKTFAQARAYIFIDEAHITQALIWLSQRQKDNGCFRSSGSLLNNAIKGGVEDEVTLSAYITIALLEIPLTVTHPVVRNALFCLESAWKTAQEGDHGSHVYTKALLAYAFALAGNQDKRKEVLKSLNEEAVKKDNSVHWERPQKPKAPVGHFYEPQAPSAEVEMTSYVLLAYLTAQPAPTSEDLTSATNIVKWITKQQNAQGGFSSTQDTVVALHALSKYGAATFTRTGKAAQVTIQSSGTFSSKFQVDNNNRLLLQQVSLPELPGEYSMKVTGEGCVYLQTSLKYNILPEKEEFPFALGVQTLPQTCDEPKAHTSFQISLSVSYTGSRSASNMAIVDVKMVSGFIPLKPTVKMLERSNHVSRTEVSSNHVLIYLDKVSNQTLSLFFTVLQDVPVRDLKPAIVKVYDYYETDEFAIAEYNAPCSKDLGNADYKDDDDKGASHHHHHH
104 % of WT	316 % of WT	68 % of WT	54 % of WT	93 % of WT	42 % of WT	30 % of WT	265 % of WT	92 % of WT	78 % of WT	75 % of WT	Variant A2M, bait region SEQ ID NO 22 (other) SVSGKPQYMVLVPSLLHTETTEKGCVLLSYLNETVTVSASLESVRGNRSLFTDLEAENDVLHCVAFAVPKSSSNEEVMFLTVQVKGPTQEFKKRTTVMVKNEDSLVFVQTDKSIYKPGQTVKFRVVSMDENFHPLNELIPLVYIQDPKGNRIAQWQSFQLEGGLKQFSFPLSSEPFQGSYKVVVQKKSGGRTEHPFTVEEFVLPKFEVQVTVPKIITILEEEMNVSVCGLYTYGKPVPGHVTVSICRKYSDASDCHGEDSQAFCEKFSGQLNSHGCFYQQVKTKVFQLKRKEYEMKLHTEAQIQEEGTVVELTGRQSSEITRTITKLSFVKVDSHFRQGIPFFGQVRLVDGKGVPIPNKVIFIRGNEANYYSNATTDEHGLVQFSINTTNVMGTSLTVRVNYKDRSPCYGYQWVSEEHEEAHHTAYLVFSPSKSFVHLEPMSHELPCGHTQTVQAHYILNGGTLLGLKKLSFYYLIMAKGGIVRTGTHGLLVKQEDMKGHFSISIPVKSDIAPVARLLIYAVLPTGDVIGDSAKYDVENCLANKVDLSFSPSQSLPASHAHLRVTAAPQSVCALRAVDQSVLLMKPDAELSASSVYNLLPEKDLTGFPGPLNDQDDEDCINRHNVYINGITYTPVSSTNEKDMYSFLEDMGLKAFTNSKIRKPKMCPQLEHGPEGEGEGEFRGVTIPENFFGVPRYLTASEDLVVQISELEGRGSPHTKLRKYFPETWIWDLVVVNSAGVAEVGVTVPDTITEWKAGAFCLSEDAGLGISSTASLRAFQPFFVELTMPYSVIRGEAFTLKATVLNYLPKCIRVSVQLEASPAFLAVPVEKEQAPHCICANGRQTVSWAVTPKSLGNVNFTVSAEALESQELCGTEVPSVPEHGRKDTVIKPLLVEPEGLEKETTFNSLLCPSGGEVSEELSLKLPPNVVEESARASVSVLGDILGSAMQNTQNLLQMPYGCGEQNMVLFAPNIYVLDYLNETQQLTPEIKSKAIGYLNTGYQRQLNYKHYDGSYSTFGERYGRNQGNTWLTAFVLKTFAQARAYIFIDEAHITQALIWLSQRQKDNGCFRSSGSLLNNAIKGGVEDEVTLSAYITIALLEIPLTVTHPVVRNALFCLESAWKTAQEGDHGSHVYTKALLAYAFALAGNQDKRKEVLKSLNEEAVKKDNSVHWERPQKPKAPVGHFYEPQAPSAEVEMTSYVLLAYLTAQPAPTSEDLTSATNIVKWITKQQNAQGGFSSTQDTVVALHALSKYGAATFTRTGKAAQVTIQSSGTFSSKFQVDNNNRLLLQQVSLPELPGEYSMKVTGEGCVYLQTSLKYNILPEKEEFPFALGVQTLPQTCDEPKAHTSFQISLSVSYTGSRSASNMAIVDVKMVSGFIPLKPTVKMLERSNHVSRTEVSSNHVLIYLDKVSNQTLSLFFTVLQDVPVRDLKPAIVKVYDYYETDEFAIAEYNAPCSKDLGNADYKDDDDKGASHHHHHH
